T1: NKG2D (natural receptor on NK cells) (human, UniProt P26718 1-216)
T1 construct: whole, on cells; also called NKG2D receptors; natural NKG2D
T1 sequence (looked up): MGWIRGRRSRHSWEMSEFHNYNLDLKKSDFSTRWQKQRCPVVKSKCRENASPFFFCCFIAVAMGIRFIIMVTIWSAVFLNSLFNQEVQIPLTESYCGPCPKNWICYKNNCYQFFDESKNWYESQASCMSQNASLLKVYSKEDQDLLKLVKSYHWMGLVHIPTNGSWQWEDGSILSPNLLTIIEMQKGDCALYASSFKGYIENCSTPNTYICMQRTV

T2: NKG2D-GFP (human, UniProt P26718 1-216)
T2 construct: whole, on cells; NKG2D-GFP expressed in NK cells for the PLA between GFP and DAP10; also called natural NKG2D; not shown: GFP
T2 sequence (looked up): T1 sequence (looked up)

B1: CAR2-GFP fusion (NKG2D CAR: anti-CD19 ScFv-CD8 hinge-NKG2D TM-2B4 ICD-CD3zeta, fused to GFP) (receptor)
chain: EVKLQQSGAELVRPGSSVKISCKASGYAFSSYWMNWVKQRPGQGLEWIGQIYPGDGDTNYNGKFKGQATLTADKSSSTAYMQLSGLTSEDSAVYFCARKTISSVVDFYFDYWGQGTTVTVSSGGGGSGGGGSGGGGSDIELTQSPKFMSTSVGDRVSVTCKASQNVGTNVAWYQQKPGQSPKPLIYSATYRNSGVPDRFTGSGSGTDFTLTITNVQSKDLADYFCQQYNRYPYTSGGGTKLEIKPAKPTTTPAPRPPTPAPTIASQPLSLRPEACRPAAGGAVHTRGLDFACDPFFFCCFIAVAMGIRFIIMVTWRRKRKEKQSETSPKEFLTIYEDVKDLKTRRNHEQEQTFPGGGSTIYSMIQSQSSAPTSQEPAYTLYSLIQPSRKSGSRKRNHSPSFNSTIYEVIGKSQPKAQNPARLSRKELENFDVYSSFGLLDPKLCYLLDGILFIYGVILTALFLRVKFSRSADAPAYQQGQNQLYNELNLGRREEYDVLDKRRGRDPEMGGKPRRKNPQEGLYNELQKDKMAEAYSEIGMKGERRRGKGHDGLYQGLSTATKDTYDALHMQALPPR
notes: Expressed in NK cells for the Duolink PLA; not shown: GFP
B2: DNAX-Activation Protein 10 (DAP10) (other, human, UniProt Q9UBK5 19-93, looked up)
chain: QTTPGERSSLPAFYPGTSGSCSGCGSLSLPLLAGLVAADAVASLLIVGAVFLCARPRRSPAQEDGKVYINMPGRG
notes: whole, on cells; Endogenous DAP10 of the NK cells, detected with anti-DAP10 (mouse IgG) in the PLA

Test [1] has as its target B2. The experiment in a line: Duolink proximity ligation assay (anti-GFP + anti-DAP10) in NK cells stimulated by 293T-CD19-MICA, confocal microscopy. The procedure: (§1) PLA assays were performed using the in situ Duolink PLA red kit (Sigma-Aldrich) according to the manufacturer's instructions. The CAR0, an empty vector with GFP expression, or CAR2-GFP fusion expressing NK cells were attached to the poly-l-lysine glass, target cells were then added and incubated at 37° C. for 30 minutes. Unattached cells were removed by washing with PBS. slides were fixed and stained with anti-GFP (Rabbit IgG) and anti-DAP10 (Mouse IgG), washed, and stained with anti-rabbit and anti-mouse PLA probes, followed by probe DNA ligation, amplification, Fluorescent staining were then performed and observed using confocal microscopy,
(§2) NKG2D receptor has no intracellular signaling domain, it recruits adaptor DNAX-Activation Protein 10 (DAP10) to transfer signals via YxxM motif (Eagle et al. (2009) Beyond Stressed Self: Evidence for NKG2D Ligand Expression on Healthy Cells. Curr Immunol Rev. 5(1):22-34). […] DAP10 was recruited to the CAR2 effectively stimulating by CD19.

Test [2] addresses T1, NKG2D (natural receptor on NK cells). Kind of test: Duolink proximity ligation assay NKG2D+DAP10, counted PLA signals, CAR-NK cells stimulated by 293T-MICA.
In a further test the target is T2, NKG2D-GFP. Kind of test: Duolink proximity ligation assay (anti-GFP + anti-DAP10) in NKG2D-GFP expressing NK cells with CAR0 or CAR2, stimulated by 293T-CD19-MICA, confocal microscopy. The method, then: as §1, §2

Experimental findings from patent publication US20260083845A1 (CELLICURE, published 2026) are described below.

With B1, the binding result in test [1] is reported as “binds”.

As to B2, the binding result (in test [2]; with NKG2D-GFP) was “binds” in each case.
